These results are taken from paper PMC5158082 (PLoS Pathogens, 2016).

As a reminder, the stoichiometry N is a count of units in the complex or per binding partner.

One data set concerns the target T1, SpaR^STREP (Salmonella enterica serovar Typhimurium, UniProt P40701 1-263).
T1 construct: also called SpaR^STREP of the SpaPR^STREP complex
T1 sequence: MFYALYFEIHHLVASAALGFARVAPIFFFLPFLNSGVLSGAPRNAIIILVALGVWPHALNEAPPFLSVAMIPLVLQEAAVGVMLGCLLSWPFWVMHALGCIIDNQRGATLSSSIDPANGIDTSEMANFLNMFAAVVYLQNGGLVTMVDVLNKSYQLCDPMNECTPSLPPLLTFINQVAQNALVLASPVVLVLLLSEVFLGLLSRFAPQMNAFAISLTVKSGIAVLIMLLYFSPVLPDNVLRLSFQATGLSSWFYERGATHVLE
As to the kind of experiment: native MS. The following applies: both partners purified.

The data set “native MS” deals with the molecule itself. As to the kind of experiment: native MS.

B1: SpaP (untagged, co-expressed in E. coli) (natural protein)
chain: MGNDISLIALLAFSTLLPFIIASGTCFVKFSIVFVMVRNALGLQQIPSNMTLNGVALLLSMFVMWPIMHDAYVYFEDEDVTFNDISSLSKHVDEGLDGYRDYLIKYSDRELVQFFENAQLKRQYGEETETVKRDKDEIEKPSIFALLPAYALSEIKSAFKIGFYLYLPFVVVDLVVSSVLLALGMMMMSPVTISTPIKLVLFVALDGWTLLSKGLILQYMDIAT
notes: also called SpaP of the SpaPR complex; SpaP5R1
For B1, the “stoichiometry N” value with SpaR^STREP was 5 SpaP per SpaR^STREP; in “native MS” it was 5.
